Experimental data published in patent EP0308499B1, “SUBSTRATE ASSISTED CATALYSIS” (GENENCOR INTERNATIONAL, INC., priority 1987, dated 1988).
Numbered stars: 1 amine (or outer) side, 2 acyl side, 3 side chain; on linkers, the order of the positions; unused ones are H or OH. Peptide text beside a SMILES is read from it. * marks the point of attachment. pNA = O=[N+]([O-])c1ccc(N*)cc1; Suc = O=C(CCC(=O)[*:2])[*:1]

Assays:
[1] = molecular target: β-lactamase, Serine-70 substituted with cysteine (thiol-containing β-lactamase) (Escherichia coli, UniProt P62593, S68C); details: cited from earlier work; for kcat: relative to that of a wild type enzyme
[2] = molecular target: T1, B. amyloliquefaciens subtilisin mutant Cys-24/Ala-64 (Ser-24→Cys/His-64→Ala) (Bacillus amyloliquefaciens, UniProt P00782, H171A/S131C); assay: Kinetic analysis of hydrolysis of p-nitroanilide peptide substrates (release of ρ-nitroaniline, Eadie-Hofstee plot); format: biochemical
T1 construct: The His-64→Ala mutation caused a severe reduction in secretion of mature subtilisin; made in house; host or cells: Bacillus subtilis BG2036, co-cultured with helper cells carrying active Ala-48→Glu subtilisin
T1 sequence (P00782 108-382 S131C/H171A): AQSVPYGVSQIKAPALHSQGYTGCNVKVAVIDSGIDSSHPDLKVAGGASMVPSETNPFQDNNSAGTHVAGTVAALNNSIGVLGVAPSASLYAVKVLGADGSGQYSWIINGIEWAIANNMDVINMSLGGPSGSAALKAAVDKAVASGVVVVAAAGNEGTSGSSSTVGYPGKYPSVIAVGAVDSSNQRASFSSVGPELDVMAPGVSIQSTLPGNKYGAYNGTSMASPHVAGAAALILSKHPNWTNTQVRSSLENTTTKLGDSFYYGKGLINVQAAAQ
Experimental: (§1) The kinetic parameters for Cys-24 and Cys-24/Ala-64 were determined against the substrates N-succinyl-L-Phe-L-Ala-L-[X)-L-Phe-ρ-nitroanilide (abbreviated sFAXF-pNA), where X (P2 position) was Ala, Gln, or His (Table I). […] By comparison, the His-64→Ala mutation causes a drop of ∿10⁶ fold in kcat/Km against the Ala and Gln P2 substrates. Almost all of the decrease in catalytic efficiency is caused by a decreased kcat term (up to 10⁶ times), although smaller but significant increases appear in Km. […] Although the proportion of functional active sites in Cys-24/Ala-64 enzyme preparations could not be determined directly by such active site labeling, enzyme that was purified by additional native gel electrophoresis (Example 6) had identical kinetic parameters to Cys-24/Ala-64 described in Table V.

[3] = molecular target: T1, B. amyloliquefaciens subtilisin mutant Cys-24/Ala-64 (Ser-24→Cys/His-64→Ala); assay: Inhibition by the active site reagent PMSF; format: biochemical; details: concentration not given
Experimental: as §1
Several lines of evidence indicate that the activity we attribute to the Cys-24/Ala-64 enzyme is not the result of any other protease contamination. Firstly, the extreme substrate preference for His at the P2 position is unlike wild-type subtilisin or any known Bacillus protease. […] Finally, the kinetic values determined for Cys-24/Ala-64 that was additionally purified by native gel electrophoresis (Example 6) are essentially the same as these reported in Table V.

[4] = substrate: C[C@H](NC(=O)[C@H](C)NC(=O)[C@H](Cc1ccccc1)NC(=O)CCC(=O)O)C(=O)N[C@@H](Cc1ccccc1)C(=O)Nc1ccc([N+](=O)[O-])cc1; assay: Kinetic analysis of hydrolysis of p-nitroanilide peptide substrates (release of ρ-nitroaniline, Eadie-Hofstee plot); format: biochemical, B. amyloliquefaciens; details: other: 0.10 M Tris-HCl (pH 8.6), 10 mM DTT, 25±0.1°C, 25.0 °C
Experimental: as §1

[5] = substrate: C[C@H](NC(=O)[C@H](Cc1ccccc1)NC(=O)CCC(=O)O)C(=O)N[C@@H](CCC(N)=O)C(=O)N[C@@H](Cc1ccccc1)C(=O)Nc1ccc([N+](=O)[O-])cc1; assay: as above; format: biochemical, B. amyloliquefaciens; details: other: 0.10 M Tris-HCl (pH 8.6), 10 mM DTT, 25±0.1°C, 25.0 °C
Experimental: as §1

[6] = substrate: C[C@H](NC(=O)[C@H](Cc1ccccc1)NC(=O)CCC(=O)O)C(=O)N[C@@H](Cc1c[nH]cn1)C(=O)N[C@@H](Cc1ccccc1)C(=O)Nc1ccc([N+](=O)[O-])cc1; assay: as above; format: biochemical, B. amyloliquefaciens; details: other: 0.10 M Tris-HCl (pH 8.6), 10 mM DTT, 25±0.1°C, 25.0 °C
Experimental: as §1

For `O=C(Cc1cccs1)N[C@@H]1C(=O)N2C(C(=O)O)=C(/C=C/c3ccc([N+](=O)[O-])cc3[N+](=O)[O-])CS[C@H]12` [nitrocefin], the Km ([1]; relative to that of the wild type) is given as “greater than 10 fold”.

For `C[C@H](NC(=O)[C@H](Cc1ccccc1)NC(=O)CCC(=O)O)C(=O)N[C@@H](Cc1c[nH]cn1)C(=O)N[C@@H](Cc1ccccc1)C(=O)Nc1ccc([N+](=O)[O-])cc1` [His, N-succinyl-L-Phe-L-Ala-L-X-L-Phe-ρ-nitroanilide] (Suc-FAHF-pNA), the “catalytic efficiency below wild-type” value ([2]; kcat/Km compared with wild-type subtilisin) was 5,000 fold, the “kcat of the His P2 substrate larger than that of the Ala P2 substrate by a factor” value ([2]; pH 8.6, Table V data) was 2,000 and the “kcat of the His P2 substrate larger than that of the Gln P2 substrate by a factor” value ([2]; pH 8.6, Table V data) was 500.

In the case of `CC1(C)S[C@@H]2[C@H](NC(=O)[C@H](N)c3ccccc3)C(=O)N2[C@H]1C(=O)O` [ampicillin], the kcat [1] is given as 1-2%.

In the case of `CC1(C)S[C@@H]2[C@H](NC(=O)Cc3ccccc3)C(=O)N2[C@H]1C(=O)O` [benzyl penicillin], the kcat [1] is listed as 1-2%.

For `O=S(=O)(F)Cc1ccccc1` [PMSF, phenylmethylsulfonyl-fluoride], the “inhibition by PMSF” value [3] was “completely resistant to inhibition”.

B1: B. amyloliquefaciens subtilisin, recombinant Cys-24 (Ser-24→Cys; kinetically essentially identical to wild-type) (Bacillus amyloliquefaciens; S131C) (protein)
chain: AQSVPYGVSQIKAPALHSQGYTGCNVKVAVIDSGIDSSHPDLKVAGGASMVPSETNPFQDNNSHGTHVAGTVAALNNSIGVLGVAPSASLYAVKVLGADGSGQYSWIINGIEWAIANNMDVINMSLGGPSGSAALKAAVDKAVASGVVVVAAAGNEGTSGSSSTVGYPGKYPSVIAVGAVDSSNQRASFSSVGPELDVMAPGVSIQSTLPGNKYGAYNGTSMASPHVAGAAALILSKHPNWTNTQVRSSLENTTTKLGDSFYYGKGLINVQAAAQ
notes: Maturation of the primary subtilisin gene product (preprosubtilisin) to subtilisin in B. substilis is believed to be mediated by autoproteolysis; made in house
For B1, the Km [4] was 10 µM, the kcat [4] was 8.1 s⁻¹ and the kcat/Km [4] was 8.0 x 10^5 s^-1M^-1. For the same molecule, the Km [5] was 39 µM, the kcat [5] was 7.0 s⁻¹ and the kcat/Km [5] was 1.8 x 10^5 s^-1M^-1. For the same molecule, the Km [6] was 23 µM, the kcat [6] was 4.6 s⁻¹ and the kcat/Km [6] was 2.0 x 10^5 s^-1M^-1.

B2: B. amyloliquefaciens subtilisin mutant Cys-24/Ala-64 (Ser-24→Cys/His-64→Ala) (Bacillus amyloliquefaciens; H171A/S131C) (protein)
chain: AQSVPYGVSQIKAPALHSQGYTGCNVKVAVIDSGIDSSHPDLKVAGGASMVPSETNPFQDNNSAGTHVAGTVAALNNSIGVLGVAPSASLYAVKVLGADGSGQYSWIINGIEWAIANNMDVINMSLGGPSGSAALKAAVDKAVASGVVVVAAAGNEGTSGSSSTVGYPGKYPSVIAVGAVDSSNQRASFSSVGPELDVMAPGVSIQSTLPGNKYGAYNGTSMASPHVAGAAALILSKHPNWTNTQVRSSLENTTTKLGDSFYYGKGLINVQAAAQ
Work on B2 yielded a Km ([4]; in the presence of PMSF) of 32 µM, a kcat ([4]; in the presence of PMSF) of 8.1e-06 s⁻¹ and a kcat/Km ([4]; in the presence of PMSF) of 0.25 s^-1M^-1. The Km ([5]; in the presence of PMSF) was 150 µM, the kcat ([5]; in the presence of PMSF) was 3e-05 s⁻¹ and the kcat/Km ([5]; in the presence of PMSF) was 0.20 s^-1M^-1. For the same molecule, the Km ([6]; in the presence of PMSF) was 380 µM, the kcat ([6]; in the presence of PMSF) was 0.016 s⁻¹ and the kcat/Km ([6]; in the presence of PMSF) was 42 s^-1M^-1.
